Measurements: the RNAGym collection of RNA variant scans (doi:10.7554/elife.90254)

B1: OR4K15 (parent)
chain: GUUAACGGUCAUAGGCCAUGGAAACUAGGAGCACCAUUUCGCUGCCAGUGAAGAAAUGAACAAAGAAAAUCUGGGCCAGGCAGGCAUCAAAAGAAAUAGUCUUGCGCUCAACCAGAAAGUCUGUAAUCAUUUUAAGGGUA

Variants of: B1
Experiment: self-cleavage, relative activity (ratio to wild type); higher = more cleavage; in vitro, sequencing; the parent is a self-cleaving ribozyme

| Variant | self-cleavage |
| --- | --- |
| GUUAACGGUAAUAGGCCAUGGAAACUAGGAGCACCAUUUCGCUGCCUGUGAAGAAAUGAACAAAGAAAAUCUGGGCCAGGCAGGCAUCAAAAGAAAUAGUCUUGCGCUCAACCAGAAAGUCUGUAAUCAUUUUAAGGGUA [C10A A47U] | 1 |
| GUUAACGGUAAUAGGCCAUGGAAACUAGGAGCACCAUUUCGCUGCCAGUGAAGAAAUGAACAAAGAAAAUCUGGGCCAGGCAGGCAUCAGAAGAAAUAGUCUUGCGCUCAACCAGAAAGUCUGUAAUCAUUUUAAGGGUA [C10A A90G] | 1.02 |
| GUUAACGGGCAUAGGCCAUGGAAACUAGGAGCACCAUUUCGCUGCCAGUGAAGAAAUGAACAAAGAAAAUCUGGGCCAGGCAGGCAUCAAAAGAAAUAGUCUUGCGCUCAACCAGAAAAUCUGUAAUCAUUUUAAGGGUA [U9G G119A] | 1.48 |
| GUUAACGGCCAUAGGCCAUGGAAACUAGGAGCACCAUUUCGCUGCCAGUGAAGAAAUGAACAAAGAAAAUCUGGGCCAGGCAGGCAUCAAAAGAAAUAGUCUUGCGCUCAACCAGAAAGUCUGUAAUCAUUGUAAGGGUA [U9C U132G] | 1.94 |
| GUUAACGGUUAUAGGCCAUGGAAACUAGGAGCACCAUUUCGCUGCCAGUGAAGAAAUGAACAAAGAAAAUCUGGGCCAGGCAGGCAUCAAAAGAAAUAGUCUUGCGCUCAGCCAGAAAGUCUGUAAUCAUUUUAAGGGUA [C10U A111G] | 0.07 |
| GUUAACGGUUAUAGGCCAUGGAAACUAGGAGCACCAUUUCGCUGCCAGUGAAGAAAUGAACAAAGAAAAUCUGGGCCAGGCAGGCAUCAAAAGAAAUAGUCUUGCCCUCAACCAGAAAGUCUGUAAUCAUUUUAAGGGUA [C10U G106C] | 0.03 |
| GUUAACGGUAAUAGGCCAUGGAAACUAGGAGCACCAUUUCGCUGCCAGUGAAGAAAUGAACAAAGAAAAUCUGGGCCAGGCAGGCAUCAAAAGAAAUAGUCUUGCGCUCAACCAGAAAGUCUGCAAUCAUUUUAAGGGUA [C10A U124C] | 0.79 |
| GUUAACGGGCAUAGGCCAUGGAAACUAGGAGCACCAUUUCGCUGCCAGUGAAGAAAUGAACAAAGAAAAUCUGGGCCAGGCAGGCAUCAAUAGAAAUAGUCUUGCGCUCAACCAGAAAGUCUGUAAUCAUUUUAAGGGUA [U9G A91U] | 1.26 |
| GUUAACGGUUAUAGGCCAUGGAAACUAGGAGCACCAUUUCGCUGCCAGUGAAGAAGUGAACAAAGAAAAUCUGGGCCAGGCAGGCAUCAAAAGAAAUAGUCUUGCGCUCAACCAGAAAGUCUGUAAUCAUUUUAAGGGUA [C10U A56G] | 0.84 |
| GUUAACGGGCAUAGGCCAUGGAAACUAGGAGCACCAUUUCGCUGCCAGUGAAGAAAUGAACAAAGAAAAUCUGGGCCAGGCAGGCAUCAAAAGAAGUAGUCUUGCGCUCAACCAGAAAGUCUGUAAUCAUUUUAAGGGUA [U9G A96G] | 1.46 |
| GUUAACGGGCAUAGGCCAUGGAAACUAGGAGCACCAUUUCGCUGCCAGUGAAGAAAUGAACAAAGAAAAUCUGGGCCAGGCAAGCAUCAAAAGAAAUAGUCUUGCGCUCAACCAGAAAGUCUGUAAUCAUUUUAAGGGUA [U9G G83A] | 1.07 |
| GUUAACGGUAAUAGGCCAUGGAAACUAGGAGCACCAUAUCGCUGCCAGUGAAGAAAUGAACAAAGAAAAUCUGGGCCAGGCAGGCAUCAAAAGAAAUAGUCUUGCGCUCAACCAGAAAGUCUGUAAUCAUUUUAAGGGUA [C10A U38A] | 0.81 |
| GUUAACGGUUAUAGGCCAUGGAAACUAGGAGCACCAUUUCGCUGCCGGUGAAGAAAUGAACAAAGAAAAUCUGGGCCAGGCAGGCAUCAAAAGAAAUAGUCUUGCGCUCAACCAGAAAGUCUGUAAUCAUUUUAAGGGUA [C10U A47G] | 0 |
| GUUAACGGGCAUAGGCCAUGGAAACUAGGAGCACCAUUUCGCUGCCAGUGAAGAAAUGAACAAAGAAAAUCUGGGCCAGGCAGGCAUCAAAAGAAAUAGUCUUGCGCUCAACCAGAAAGUCUGUAAUCAUUUUAUGGGUA [U9G A135U] | 0.85 |
| GUUAACGGGCAUAGGCCAUGGAAACCAGGAGCACCAUUUCGCUGCCAGUGAAGAAAUGAACAAAGAAAAUCUGGGCCAGGCAGGCAUCAAAAGAAAUAGUCUUGCGCUCAACCAGAAAGUCUGUAAUCAUUUUAAGGGUA [U9G U26C] | 0.34 |
| GUUAACGGGCAUAGGCCAUGGAAACUAGGAGCACCAUUUCGCUGCCAGUGAAGAAAAGAACAAAGAAAAUCUGGGCCAGGCAGGCAUCAAAAGAAAUAGUCUUGCGCUCAACCAGAAAGUCUGUAAUCAUUUUAAGGGUA [U9G U57A] | 0.51 |
| GUUAACGGUAAUAGGCCAUGGAAACUAGGAGCACCAUUUCGCUGCCAGUGAAGAAAUGAACAAAGAAGAUCUGGGCCAGGCAGGCAUCAAAAGAAAUAGUCUUGCGCUCAACCAGAAAGUCUGUAAUCAUUUUAAGGGUA [C10A A68G] | 0.85 |
| GUUAACGGGCAUAGGCCAUGGAAACUAGGAGCACCAUUUCGCUGCCAGUGAAGAAAUGAACAAAGAAAAUCUGGGCCAGGCAGGCAUCAAAAGAAAUAGUCCUGCGCUCAACCAGAAAGUCUGUAAUCAUUUUAAGGGUA [U9G U102C] | 2.28 |
| GUUAACGGUUAUAGGCCAUGGAAACUAGGAGCACCAUUUCGCUGCCAGUGAAGAAAUGAACAAAGAAAAUCUGGGCCAGGCAGGCAUCAAGAGAAAUAGUCUUGCGCUCAACCAGAAAGUCUGUAAUCAUUUUAAGGGUA [C10U A91G] | 0.68 |
| GUUAACGGCCAUAGGCCAUGGAAACUAGGAGCACCAUUUCGCUGCCAGUGAAGAAAUGAACAAAGAAAAUCUGGGCCAGGCAGGCAUCAAAAGAAAUAGUCUUGCGCUCAACCAGAAAGUCUGUAAUCAUUUUAAGGGCA [U9C U139C] | 2.45 |
| GUUAACGGGCAUAGGCCAUGGAAACUAGGAGCACCAUUUCGCUGCCAGUGAAGAAAUGAACAAAGAAAAUCUGGGCCAGGCAGGCAUCGAAAGAAAUAGUCUUGCGCUCAACCAGAAAGUCUGUAAUCAUUUUAAGGGUA [U9G A89G] | 1.46 |

| Variant | self-cleavage |
| --- | --- |
| GUUAACGGUAAUAGGCCAUGGAAACUAGGAGCACCAUUUCGCUGCCAGUGAAGAAAUGAACAAAGAAAAUCUGGGCCAGGCAGGCAUCAAAAGAAAUAGUCUUGCGCUCAACCAGAAGGUCUGUAAUCAUUUUAAGGGUA [C10A A118G] | 1.99 |
| GUUAACGGUAAUAGGCCAUGGAAACUAGGAGCACCAUUUCGCUGCCAGUGAAGAAAUGAACAAAGAAAAUCUGGGCCAGGCAGGCGUCAAAAGAAAUAGUCUUGCGCUCAACCAGAAAGUCUGUAAUCAUUUUAAGGGUA [C10A A86G] | 0.31 |
| GUUAACGGGCAUAGGCCAUGGAAACUAGGAGCACCAUUUCGCUGCCAGUGAAGAAAUGAACAAAGAAAAUCUGGGCCAGGCAGGCAUCAAAAGAAAUAGUCUUGCGCUCAACCAGACAGUCUGUAAUCAUUUUAAGGGUA [U9G A117C] | 0.41 |
| GUUAACGGGCAUAGGCCAUGGAAACUAGGAGCACCAUUUCGCUGCCAGUGAAGAAAUGAACAAAGAAAAUCUGGGCCAGGCAGGCAUCAAAAGAAAUAGUCUUGCGCUCAACCAGAGAGUCUGUAAUCAUUUUAAGGGUA [U9G A117G] | 2.41 |
| GUUAACGGGCAUAGGCCAUGGAAACUAGGAGCACCAUUUCGCUGCCAGUGAAGAAAUGAACAAAGAAAAUCUGGGCCAGGCAGGCAUCAAAAGAGAUAGUCUUGCGCUCAACCAGAAAGUCUGUAAUCAUUUUAAGGGUA [U9G A95G] | 0.99 |
| GUUAACGGUUAUAGGCCAUGGAAACUAGGAGCACCAUUUCGCUGCCAGUGAAGAAAUGAACAAAGAAAAUCUGGGCCAGGCAGGCAUCAAAAGAAAUAGUCUUGCGCUCGACCAGAAAGUCUGUAAUCAUUUUAAGGGUA [C10U A110G] | 0.19 |
| GUUAACGGUUAUAGGCCAUGGAAACUAGGAGCACCAUUUCGCUGCCAGUGAAGAAAUGAACAAAGAAAAUCUGGGCCAGGCAGGCAUCAAAAGACAUAGUCUUGCGCUCAACCAGAAAGUCUGUAAUCAUUUUAAGGGUA [C10U A95C] | 0.6 |
| GUUAACGGUUAUAGGCCAUGGAAACUAGGAGCACCAUUUCGCUGCCAGUGAAGAGAUGAACAAAGAAAAUCUGGGCCAGGCAGGCAUCAAAAGAAAUAGUCUUGCGCUCAACCAGAAAGUCUGUAAUCAUUUUAAGGGUA [C10U A55G] | 0.52 |
| GUUAACGGUUAUAGGCCAUGGAAACUAGGAGCACCAUUUCGCUGCCAGUGAAGAAAUGAACAUAGAAAAUCUGGGCCAGGCAGGCAUCAAAAGAAAUAGUCUUGCGCUCAACCAGAAAGUCUGUAAUCAUUUUAAGGGUA [C10U A63U] | 0.69 |
| GUUAACGGGCAUAGGCCAUGGAAACUAGGAGCACCAUUUCGCUGCCAGUGAAGGAAUGAACAAAGAAAAUCUGGGCCAGGCAGGCAUCAAAAGAAAUAGUCUUGCGCUCAACCAGAAAGUCUGUAAUCAUUUUAAGGGUA [U9G A54G] | 1.44 |
| GUUAACGGGCAUAGGCCAUGGAAACUAGGAGCACCAUUUCGCUGCCAGUGAAGAAAUGAACAAAGAAAAUCUGGGCCAGGCAGGCAUCAAAAGAAAUAGCCUUGCGCUCAACCAGAAAGUCUGUAAUCAUUUUAAGGGUA [U9G U100C] | 1.91 |
| GUUAACGGGCAUAGGCCAUGGAAACUAGGAGCACCAUUUCGCUGCCAGUGAAGAAAUGAACAAAGAAAAUCAGGGCCAGGCAGGCAUCAAAAGAAAUAGUCUUGCGCUCAACCAGAAAGUCUGUAAUCAUUUUAAGGGUA [U9G U72A] | 0.19 |
| GUUAACGGUAAUAGGCCAUAGAAACUAGGAGCACCAUUUCGCUGCCAGUGAAGAAAUGAACAAAGAAAAUCUGGGCCAGGCAGGCAUCAAAAGAAAUAGUCUUGCGCUCAACCAGAAAGUCUGUAAUCAUUUUAAGGGUA [C10A G20A] | 0.86 |
| GUUAACGGGCAUAGGCCAUGGAAACUAGGAGCACCAUUUCGCUGCCAGUGAAGAAAUGAACAAAGAAAAUCUGGGCCGGGCAGGCAUCAAAAGAAAUAGUCUUGCGCUCAACCAGAAAGUCUGUAAUCAUUUUAAGGGUA [U9G A78G] | 0.26 |
| GUUAACGGGCAUAGGCCAUGGAAGCUAGGAGCACCAUUUCGCUGCCAGUGAAGAAAUGAACAAAGAAAAUCUGGGCCAGGCAGGCAUCAAAAGAAAUAGUCUUGCGCUCAACCAGAAAGUCUGUAAUCAUUUUAAGGGUA [U9G A24G] | 1.4 |
| GUUAACGGGCAUAGGCCAUGGAAACUAGGAGCACCAUUUCGCUGCCAGUGAAGAAAUGAACUAAGAAAAUCUGGGCCAGGCAGGCAUCAAAAGAAAUAGUCUUGCGCUCAACCAGAAAGUCUGUAAUCAUUUUAAGGGUA [U9G A62U] | 0.44 |
| GUUAACGGUUAUAGGCCAUGGAAACUAGGAGCACCAUUUCGCUGCCAGUGAAGAAAUGAACAAGGAAAAUCUGGGCCAGGCAGGCAUCAAAAGAAAUAGUCUUGCGCUCAACCAGAAAGUCUGUAAUCAUUUUAAGGGUA [C10U A64G] | 1.25 |
| GUUAACGGGCAUAGGCCAUGGAAACUAGGAGCACCAUUUCGCUGCCAGUGAAGAAAUGAACAAAGAAAAUCUGGGCCAGGCAGGCAUCAAAAGAAAUAGUCUUGCGCUCAACCAGAAAGUCUGUAAUCAUUUUAAGGGUA [U9G] | 0.92 |
| GUUAACGGUUAUAGGCCAUGGAAACUAGGAGCACCAUUUCGCUGCCAGUGAAGAAAUGAACAAAGAAAAUCUGGGCCAGGCAGGCAUCAAAAGAAAUAGUCUUGCGCUCAACCAGAGAGUCUGUAAUCAUUUUAAGGGUA [C10U A117G] | 2.34 |
| GUUAACGGUAAUAGGCCAUGGAAACUAGGAGCACCAUUUCGCUGCCAGUGAAGAAAUGAACAAAGAAAAUCUGGGCCAGGCAGGCAUCAAAAGAAGUAGUCUUGCGCUCAACCAGAAAGUCUGUAAUCAUUUUAAGGGUA [C10A A96G] | 1.33 |
